Test results: paper PMC8024709, “DNA ligase I fidelity mediates the mutagenic ligation of pol β oxidized and mismatch nucleotide insertion products in base excision repair”

Key:
[1] = biological target: LIG1 E346A/E592A (EE/AA) low-fidelity mutant (Homo sapiens, UniProt P18858 1-919, E346A;E592A); experiment: BLI; no Mg2+ or ATP listed in kinetics buffer; BLI (Octet QKe, streptavidin sensors, 40 nM DNA loaded, LIG1 10-2430 nM): Hepes pH 7.4, 200 mM NaCl, 0.5% BSA, 0.05% Tween 20, 20 °C; 1:1 binding model; settings: protein: recombinant; tags: His-tag; label: 3'-biotin on downstream strand (S2); 1-nt gap opposite template T; 34-nt template (S7 equals S4 reversed to 5'-3') with 17-nt upstream and 16-nt downstream strands; outer ends blunt
Chain of LIG1 E346A/E592A (EE/AA) low-fidelity mutant (P18858 whole entry E346A/E592A): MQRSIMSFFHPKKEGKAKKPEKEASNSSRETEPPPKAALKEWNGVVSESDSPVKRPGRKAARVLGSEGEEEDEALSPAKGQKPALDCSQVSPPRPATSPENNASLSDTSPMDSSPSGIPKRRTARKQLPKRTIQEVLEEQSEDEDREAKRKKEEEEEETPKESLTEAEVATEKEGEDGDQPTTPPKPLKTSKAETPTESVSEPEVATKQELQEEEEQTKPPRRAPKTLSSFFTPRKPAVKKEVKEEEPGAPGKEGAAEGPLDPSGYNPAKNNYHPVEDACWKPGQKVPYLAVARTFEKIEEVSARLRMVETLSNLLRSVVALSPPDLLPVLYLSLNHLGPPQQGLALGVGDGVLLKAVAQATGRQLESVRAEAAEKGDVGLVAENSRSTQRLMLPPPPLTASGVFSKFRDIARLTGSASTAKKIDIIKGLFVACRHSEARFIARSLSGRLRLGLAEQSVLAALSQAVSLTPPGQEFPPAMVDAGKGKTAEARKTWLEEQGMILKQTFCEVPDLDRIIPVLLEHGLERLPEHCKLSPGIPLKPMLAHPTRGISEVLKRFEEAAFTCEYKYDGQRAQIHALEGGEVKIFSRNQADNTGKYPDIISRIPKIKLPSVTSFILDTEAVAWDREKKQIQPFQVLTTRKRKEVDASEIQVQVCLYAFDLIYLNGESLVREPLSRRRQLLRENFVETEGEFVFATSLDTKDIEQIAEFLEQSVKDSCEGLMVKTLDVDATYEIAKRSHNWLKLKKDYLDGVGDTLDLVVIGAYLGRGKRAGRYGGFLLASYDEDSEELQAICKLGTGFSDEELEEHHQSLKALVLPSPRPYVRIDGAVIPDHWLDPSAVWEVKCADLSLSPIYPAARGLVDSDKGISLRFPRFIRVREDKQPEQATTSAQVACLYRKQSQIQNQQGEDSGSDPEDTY

[2] = biological target: DNA ligase I (LIG1) wild-type (Homo sapiens, UniProt P18858 1-919); experiment: as above; settings: protein: recombinant; tags: His-tag; label: 3'-biotin on downstream strand (S2); 1-nt gap opposite template T; 34-nt template (S7 equals S4 reversed to 5'-3') with 17-nt upstream and 16-nt downstream strands; outer ends blunt
Chain of DNA ligase I (LIG1) wild-type (P18858 whole entry): as the sequence (P18858 whole entry E346A/E592A) above, with A346E, A592E counted along it

B1: one-nucleotide-gap DNA, template T (BLI) (dsDNA)
DNA 1: CATGGGCGGCATGAACC
DNA 2: GAGGCCCATCCTCACC
DNA 3: GGTGAGGATGGGCCTCTGGTTCATGCCGCCCATG
For B1, which Kd [1] is on record?
Its Kd is ~20 nM.

And the Kd [2]?
Its Kd is ~83 nM.
